Source: US11733236B2, “Flattop (fltp) is a novel biomarker for beta cell maturation” (Helmholtz Zentrum München—Deutsches Forschungszentrum Für …, priority 2014, dated 2023)

What was measured:
β cells = experiment: multiple low-dose streptozotocin (STZ) model; type: in vivo, mouse; conditions: Fltp ZV/+ and Fltp ZV/ZV mice, 40 mg/kg i.p. daily for 5 days, vs vehicle, up to day 16
Method: […] Blood glucose level was measured every 2 days using Freestyle Lite glucometer (Abbot Laboratory). On day 16 after the first STZ injection, GTT was carried out as described and mice were euthanized.
To further test the requirement of PCP and Fltp in the context of β cell survival and regeneration, a multiple low-dose streptozotocin (STZ) model was employed (Kolb 1987). Streptozotocin is a naturally occurring chemical that is particularly toxic to β cells. For this purpose STZ was injected on five consecutive days and blood glucose regulation was measured every 2nd day thereafter in Fltp^ZV/+ and Fltp^ZV/ZV cohorts (FIG. 5C). […] Thus, loss of Fltp and planar polarization in β cells increases the vulnerability to STZ.

[1] = tested on: isolated islets of P5 WT animals; experiment: Ucn3 maturation marker staining in isolated, re-aggregated islets of P5 WT animals, Wnt5a stimulation, LSM; type: cell-based, mouse
Method: (§1) EndoC-β H1 human β-cell line were cultured in adherence (2D culture) as described previously (Ravassard et al. (2011)). For 3D matrigel based cultures EndoC-β H1 were cultured in Matrigel Matrix Growth Factor Reduced (BD Bioscience, Germany) diluted 1:2 in their respective medium. For analysis of WNT5a induced β-cell maturation, samples were stimulated with 400 ng/ml of WNT5a (R&D systems, Germany) for 12 h or 3 days.
Murine pancreatic islets of Langerhans were isolated from 5 day old mice. After decapitation of the animals, the pancreas was dissected and supplemented with collagenase P (1 mg/ml) in HBSS (Hanks balanced salt solution) including 10% BSA (G-solution) and incubated for 15 min at 37° C. The pancreas was washed 2× in G-solution at RT and the islets were picked under the stereomicroscope (Leica). The islets were incubated in RPMI 1640 plus 5% FCS (fetal calf serum) and 1% P/S (penicillin and streptomycin). Afterwards the islets were trypsinized with 0.05% Trypsin […] at 37° C., washed twice with PBS plus 0.3% BSA and then seeded in iBidi 8 well chambers. For immunohistochemistry the protocol mentioned above was used. Fluorescent intensity was calculated by the Leica LAS-AF (Version 2.7.3.9723) software and the graphs were plotted with Excel.

[2] = tested on: Fltp reporter expression in β cells of cultured islets; experiment: Fltp reporter expression in isolated islets cultured in absence or presence of Wnt ligands; type: cell-based, mouse; conditions: islets of Fltp-T2A-iCre x mTmG mice cultured in absence or presence of ligand
Method: For lineage tracing studies, islet from eight-week-old Fltp^T2A-iCre-mTmG were isolated as described above. For FACS analysis islet were incubate with 0.25% Trypsin-EDTA (Invitrogen) to obtain single cell suspensions and intarcellular staining for Nkx6.1 was performed. For live imaging experiment isolated islets from Fltp^T2A-iCre-mTmG were cultured in matrigel and imaging was performed using Leica Confocal SP5 microscope.
Islets of these crossings were isolated and cultured in vitro. To establish the culture conditions, it is first tested if β cells depend on Wnt/PCP signaling to maintain Ftp reporter expression. Therefore, islets were cultured in absence or presence of ligands of the canonical Wnt/β-catenin (Wnt3a) and non-canonical Wnt/PCP pathway (Wnt5a). […] Using these culture conditions in combination with live single cell imaging will allow us to follow new born Fltp-Cre expressing mT and mG expressing cells over a time-course of two to four days.

EndoC-β H1 human β-cells = experiment: NKX6.1 maturation marker expression in EndoC-β H1 cells cultured in Matrigel (3D), WNT5a stimulation, LSM immunofluorescence; type: cell-based
Method: as §1
Staining of EndoC-β H1 cells was performed as follows: cells were fixed for 10 min in 4% PFA at 37° C. washed 3× with PBS containing 0.2% Tween and 0.3% BSA (washing buffer) at RT, and permeabilized for 30 min on a shaker at RT. Subsequently the cells were washed again 3× with washing buffer at RT, blocked for 1 h at RT in blocking buffer (PBS including 0.02% Tween, 10% FCS, 0.2% BSA, 3% serum). Then the primary antibody was added in blocking solution and incubated over night at 4° C. The cells were washed 3× in washing buffer, incubated with the secondary antibody for 2 h at RT, washed 3× in washing buffer and embedded in Elvanol for subsequent imaging. Imaging was performed with a Leica SP5 confocal microscope according to the manufacturers guidelines. The 63× glycerol objective was used.

| Molecule | loss of β cells (immunohistochemistry on pancreatic sections) (β cells) | amount of maturation marker Ucn3 protein ([1]; islets of P5 WT animals treated with Wnt5a for 12 h vs non-treated, 400 ng/ml, n=3) | Ucn3 maturation marker staining ([1]; islets of P5 WT animals treated with Wnt5a for 3 days vs untreated, 400 ng/ml, n=3) | expression of maturation markers ([1]; neonatal isolated islets stimulated with Wnt5a) | maintenance of Fltp reporter gene expression [2] | expression of NKX6.1 (fluorescent intensity, NKX6.1 high vs low cells) (EndoC-β H1 human β-cells; EndoC-β H1 in Matrigel (3D) treated with WNT5a vs 3D without WNT5a, 400 ng/ml) | expression of maturation markers (EndoC-β H1 human β-cells; EndoC-β H1 stimulated with Wnt5a) |
| --- | --- | --- | --- | --- | --- | --- | --- |
| CN(N=O)C(=O)N[C@H]1C(O)O[C@H](CO)[C@@H](O)[C@@H]1O (mixture of isomers) [STZ, Streptozotocin] | gradual loss of β cells |  |  |  |  |  |  |
| Wnt5a: noncanonical Wnt ligand of the Wnt/PCP pathway, obtained from R&D systems (protein, UniProt P41221 62-380, looked up) Protein Wnt-5a: IIGAQPLCSQLAGLSQGQKKLCHLYQDHMQYIGEGAKTGIKECQYQFRHRRWNCSTVDNTSVFGRVMQIGSRETAFTYAVSAAGVVNAMSRACREGELSTCGCSRAARPKDLPRDWLWGGCGDNIDYGYRFAKEFVDARERERIHAKGSYESARILMNLHNNEAGRRTVYNLADVACKCHGVSGSCSLKTCWLQLADFRKVGDALKEKYDSAAAMRLNSRGKLVQVNSRFNSPTTQDLVYIDPSPDYCVRNESTGSLGTQGRLCNKTSEGMDGCELMCCGRGYDQFKTVQTERCHCKFHWCCYVKCKKCTEIVDQFVCK |  | higher amount of maturation marker Ucn3 protein | significant increase in Ucn3 maturation marker staining | increased expression of maturation markers | Fltp-reporter gene expression indeed depend on Wnt/PCP | higher expression of NKX6.1 | increased expression of maturation markers |
| Wnt3a: ligand of the canonical Wnt/β-catenin pathway (protein, UniProt P56704 19-352, looked up) Protein Wnt-3a: SYPIWWSLAVGPQYSSLGSQPILCASIPGLVPKQLRFCRNYVEIMPSVAEGIKIGIQECQHQFRGRRWNCTTVHDSLAIFGPVLDKATRESAFVHAIASAGVAFAVTRSCAEGTAAICGCSSRHQGSPGKGWKWGGCSEDIEFGGMVSREFADARENRPDARSAMNRHNNEAGRQAIASHMHLKCKCHGLSGSCEVKTCWWSQPDFRAIGDFLKDKYDSASEMVVEKHRESRGWVETLRPRYTYFKVPTERDLVYYEASPNFCEPNPETGSFGTRDRTCNVSSHGIDGCDLLCCGRGHNARAERRREKCRCVFHWCCYVSCQECTRVYDVHTCK |  |  |  |  | not canonical Wnt signaling |  |  |
